From the supplement of paper PMC7877785
± gives the uncertainty stated by the source.

Assay: self-splicing fitness, log relative to wild type (ln ratio); higher = more splicing; Tetrahymena group I intron in knt gene, E. coli kanamycin selection, DiMSum; sequences stand for … in CUCUCU…GGAGGGAAAAGUUAUCAGGCAUGCACCUGGUAGCUAGUCUUUAAACCAAUAGAUUGCAUCGGUUUAAAAGGCAAGACCGUCAAAUUGCGGGAAAGGGGUCAACAGCCGUUCAGUACCAAGUCUCAGGGGAAACUUUGAGAUGGCCUUGCAAAGGGUAUGGUAAUAAGCUGACGGACAUGGUCCUAACCACGCAGCCAAGUCCUAAGUCAACAGAUCUUCUGUUGAUAUGGAUGCAGUUCACAGACUAAAUGUCGGUCGGGGAAGAUGUAUUCUUCUCAUAAGAUAUAGUCGGACCUCUCCUUAAUGGGAGCUAGCGGAUGAAGUGAUGCAACACUGGAGCCGCUGGGAACUAAUUUGUAUGCGAAAGUAUAUUGAUUAGUUUUGGAGUACUCGUGGUCG
Method in brief: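 Six replicate transformations of E. coli BL21(DE3) with a pET-22b(+) library were grown overnight at 37°C or 30°C. The library randomised all eight P1ex-region intron nucleotides, the intron lying in the knt kanamycin-resistance gene, and plates were LB agar with or without 25 μg/mL kanamycin plus 100 μg/mL carbenicillin, 50 μM IPTG and 0.2% rhamnose. Pooled colonies were amplicon-sequenced on an Illumina HiSeq 2500, and fitness is the DiMSum error-weighted combination of wild-type-normalised replicate fold changes, kanamycin versus none.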

Sequence | self-splicing fitness (ln) (30 °C) | self-splicing fitness (ln) (37 °C)
UGAUAGCAAUAUUACGGACA | -0.237 ± 0.1 | 0.61 ± 0.14
UGAUAGCAAUAUUACGGGCC | -3.78 ± 0.42 | 
UGAUAGCAAUAUUACGGUAU | -3.75 ± 0.22 | -1.92 ± 0.18
UGAUAGCAAUAUUACGGUCU | -0.913 ± 0.12 | -0.257 ± 0.15
UGAUAGCAAUAUUACGGUGU | -3.45 ± 0.18 | -3.09 ± 0.24
UGAUAGCAAUAUUACGUAAA | -3.07 ± 0.16 | -1.64 ± 0.14
UGAUAGCAAUAUUACGUCUU | -1.22 ± 0.092 | -1.33 ± 0.09
UGAUAGCAAUAUUACGUGUA | -2.89 ± 0.18 | -1.38 ± 0.13
UGCAAGCAAUAUUACGAACG | -0.0871 ± 0.083 | 0.961 ± 0.11
UGCAAGCAAUAUUACGAAGA | -1.99 ± 0.27 | -2.3 ± 0.31
UGCAAGCAAUAUUACGACCA | -0.338 ± 0.37 | -0.273 ± 0.3
UGCAAGCAAUAUUACGAUAC | -2.87 ± 0.23 | -2.24 ± 0.37
UGCAAGCAAUAUUACGAUGU | -2.73 ± 0.16 | -2.14 ± 0.19
UGCAAGCAAUAUUACGCACA | -1.38 ± 0.12 | -0.954 ± 0.13
UGCAAGCAAUAUUACGCCGA | -1.38 ± 0.15 | -0.485 ± 0.14
UGCAAGCAAUAUUACGCUGU | -3.03 ± 0.19 | -2.93 ± 0.33
UGCAAGCAAUAUUACGGAAG | -3.38 ± 0.14 | -1.44 ± 0.1
UGCAAGCAAUAUUACGGAUG | -1.25 ± 0.065 | -0.565 ± 0.078
UGCAAGCAAUAUUACGGCGG | -0.854 ± 0.046 | -0.116 ± 0.068

Sequence | self-splicing fitness (ln) (30 °C) | self-splicing fitness (ln) (37 °C)
UGCAAGCAAUAUUACGGGGG | -3.16 ± 0.16 | -2.04 ± 0.15
UGCAAGCAAUAUUACGUGCA | -3.02 ± 0.21 | -3.18 ± 0.35
UGCAAGCAAUAUUACGUGUU | -2.22 ± 0.072 | -1.52 ± 0.098
UGCAAGCAAUAUUACGUUAU | -3.76 ± 0.15 | -1.3 ± 0.1
UGCAAGCAAUAUUACGUUUC | -4.31 ± 0.26 | -3.24 ± 0.17
UGCCAGCAAUAUUACGAACA | -0.458 ± 0.14 | 0.334 ± 0.17
UGCCAGCAAUAUUACGAACC | -3.55 ± 0.43 | -2.29 ± 0.5
UGCCAGCAAUAUUACGAGCA | -1.75 ± 0.26 | -0.682 ± 0.27
UGCCAGCAAUAUUACGAGGC | -4.02 ± 0.42 | -1.44 ± 0.18
UGCCAGCAAUAUUACGAUCG | -0.0468 ± 0.067 | 0.0388 ± 0.079
UGCCAGCAAUAUUACGAUUA | -0.904 ± 0.075 | -0.743 ± 0.089
UGCCAGCAAUAUUACGCAAC |  | -0.966 ± 0.42
UGCCAGCAAUAUUACGCACA | -0.53 ± 0.093 | -0.708 ± 0.15
UGCCAGCAAUAUUACGCAGU | -4.11 ± 0.24 | -2.41 ± 0.2
UGCCAGCAAUAUUACGCGAA | -1.33 ± 0.11 | 0.357 ± 0.11
UGCCAGCAAUAUUACGCGCG | -0.853 ± 0.083 | -0.528 ± 0.1
UGCCAGCAAUAUUACGCGGG | -3.4 ± 0.2 | -2.44 ± 0.22
UGCCAGCAAUAUUACGCGUC | -2.05 ± 0.12 | -1.8 ± 0.15
UGCCAGCAAUAUUACGCUUG | -2.85 ± 0.16 | -2.33 ± 0.19
